Reference: the supplement of paper PMC9170038

Test system: MS2 coat protein
Experiment: apparent KD of MS2 coat protein; designed switch direction (-1 OFF switch, 1 ON switch): 1; higher = weaker reporter binding
Method in brief: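 Apparent KD, taken as the median over clusters for each design, was obtained by curve-fitting normalised cluster fluorescence. Designed RNA switches had been transcribed on Illumina chips by stalled E. coli RNA polymerase and titrated with SNAP-549-labelled MS2 coat protein, doubling from 0.7 or 1.5 nM to 3 µM.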

[1] = input ligand: microRNA oligo, concentration not stated
[2] = Eterna round: R95, input ligand: FMN 200 uM
[3] = Eterna round: R95, input ligand: microRNA oligo, concentration not stated
[4] = Eterna round: R95, input ligand: none

Sequence | apparent KD of MS2 coat protein (input ligand: FMN 200 uM) [nM] | apparent KD of MS2 coat protein [1] [nM] | apparent KD of MS2 coat protein (input ligand: none) [nM] | apparent KD of MS2 coat protein [2] [nM] | apparent KD of MS2 coat protein [3] [nM] | apparent KD of MS2 coat protein [4] [nM]
CAGCGCUGUCGAGAGGAUAUGCGGUGAUGGACAUGAGGAUCACCCAUGUUAGCGACAGCAUCACGGCAGAAGGCUCUACCGCUGC [Soteed Omei mod 18] (Eterna round: R96, puzzle: Same State 2) | 19.9 | 24.1 | 60.7 | – | – | –
UGUUGUAUUACAGGAUAUCUAUUGUUUUCAUUUAGAGAAGGGUAUUCACAUGAGGAUCACCCAUGUAUAUACGAGGAAGUUGUG [JMF's solution 78] (Eterna round: R96, puzzle: Same State NG 1) | 42.1 | 33.1 | 39.9 | – | – | –
GCACAUGAGGAUCACCCAUGUGCGCUUGAUUGUCCAAGCGCACAGGAUAUACCUCCAAAUGGGAGGUAGAAGGGUGAAAAGAAA [Ravema] (Eterna round: R96, puzzle: Same State NG 3) | 2310 | 393 | 347 | – | – | –
AUUAUUAAUGCAGGAUAUGAUUAACAUGAGGAUCACCCAUGUGGUGUUGUGAGUAAGGAGAGUGAUCAGAAGGGCAUUUUUUUA [JMF's solution 18] (Eterna round: R96, puzzle: Same State NG 2) | 653 | 440 | 479 | – | – | –
AAGUAACAUGAGGAUCACCCAUGUGAGGUGAGCGUAGGAUAUCGAGGAGGAAGGGUAGGUCGAGAAGGACGAGAAG [JR_SS1_Sub096] (puzzle: Same State 1) | – | – | – | 127 | 162 | 247
UAUUUAAUCAUAGGAUAUAGUGUGUAAUUUGGACUAGAAGGAUGUAACAUGAGGAUCACCCAUGUGGUAAAUGGGAUACAUUCC [JR_SSNG1_Sub099] (Eterna round: R96, puzzle: Same State NG 1) | – | 91.9 | – | – | – | –
GCGAGGAUAUGGAGAGGAUCACCCUCUAGAAGGCGCGAAGGCGAGGAUAUGGAGAGGAUCACCCUCUAGAAGGCGCACUUCUCU [pwkr ssNG3 DX 2xF5 +2xFMN.5] (Eterna round: R96, puzzle: Same State NG 3) | 222 | 162 | 235 | – | – | –
UGUUGUAUUACAGGAUAUCUAGUAUUUAUAUUUAGAGAAGGGUAUUCACAUGAGGAUCACCCAUGUAUAUACGAGGAAGUUGUG [JMF's solution 41] (Eterna round: R96, puzzle: Same State NG 1) | – | 36.9 | – | – | – | –
UAGUACAUGCUUUUUGUCCGUCUUAGAUAACAUGAGGAUCACCCAUGUAAGGUGAAAGUUAUAUAGUUUAGGAAGAU [JR_SHM208A_Sub056] (puzzle: Sensor for hsa-mir-208a) | – | – | – | 309 | 424 | 331
GUACAGAUCAGAGGAUAUCACGUCGAUUAGACGUGAGAAGGCUGAUCACACAUGAAUAUUAGUACAUGAGGAUCACCCAUGUAC [SSNG1/15-A2] (Eterna round: R96, puzzle: Same State NG 1) | 14 | 12.5 | 16.7 | – | – | –
UGAAUAGUGAUAGGAUAUACAUGAGGAAUCCUCGUAGAAGGAUCAUAACAUGAGGAUCACCCAUGUAGCCGUCCGUAGACGGCA [Mat - Same State NG 1 - JL mod - D56] (Eterna round: R96, puzzle: Same State NG 1) | 336 | 64 | 117 | – | – | –
UUGCUUCUCGUAGGAUAUGUAGGAUAUGCCUACAUGAGGAUCACCCAUGUUCGCAUGGCAGAAGGACAGAAGGACGAUCACCCU [pwkr ssNG2 2FMN + 1F5.8] (Eterna round: R96, puzzle: Same State NG 2) | 43.5 | 88.1 | 472 | – | – | –
UUGAAUAAUUAAGGAUAUCGAGUACAUAUGUUAAACAUGAGGAUCACCCAUGUGGGUUGCGGUAUCGAGAAGGUAAAAGACAAG [Mat - Same State NG 2 - JL mod - D59] (Eterna round: R96, puzzle: Same State NG 2) | 31.2 | 25.6 | 42 | – | – | –
CAGCGCUGUCGAGAGGAUAUGCGGUGAUGGACAUGAGGAUCACCCAUGUUAGCGACAGCAUUACGGUAGAAGGCUUCACAGCUGC [Soteed Omei mod 15] (puzzle: Same State 2) | – | – | – | 61 | 33.3 | 41.8
AGUCCAGCGAAAGCUGGACAAAGACAUGUACAUGAGGAUCACCCAUGUCAUGUACAAGUUUUUUGCUCGUCUUAUAA (puzzle: Sensor for hsa-mir-208a) | – | – | – | 34.4 | 12.7 | 35.8
GGAUGAUAGACAGGAUAUUGAUUGUAAUUAGGACAAGAAGGGUCAAUGAUUUAAACGACCAGUUACAUGAGGAUCACCCAUGUU [JR_SSNG1_Sub026] (Eterna round: R96, puzzle: Same State NG 1) | 55.7 | 34 | 55.3 | – | – | –

Sequence | apparent KD of MS2 coat protein (input ligand: FMN 200 uM) [nM] | apparent KD of MS2 coat protein [1] [nM] | apparent KD of MS2 coat protein (input ligand: none) [nM] | apparent KD of MS2 coat protein [2] [nM] | apparent KD of MS2 coat protein [3] [nM] | apparent KD of MS2 coat protein [4] [nM]
AUAAGUUCGAUGCUCGUCUCUCCGUACAAACAUGAGGAUCACCCAUGUGAUUAGGCAGUAGCCCAAUCAGUAUGGCC [Ariusveri] (puzzle: Sensor for hsa-mir-208a) | – | – | – | 38.7 | 21.8 | 43.4
GUUAAACAUGAGGAUCACCCAUGUCAAUGUAGUCGAGGAUAUGGGUAGCUAUGAGGCGUACUAGAAGGCGAGGAGU [Mat - Same State 1 - Mod of JL - D16] (puzzle: Same State 1) | – | – | – | 194 | 57.1 | 164
AUUAAACAUGAGGAUCACCCAUGUCAACAAAGUCGAGGAUAUGGGCAUAUUAUCUUAUUUCCAGAAGGCGAAUAAU [salish99_ss1_r3_088] (puzzle: Same State 1) | – | – | – | – | 131 | –
UUGAAGAAUUAAGGAUAUUGAUUACAUAUGUUUAACAUGAGGAUCACCCAUGUGGGUUGCGGUAUCGAGAAGGUAAAUUAAUAG [Mat - same State NG 2 - JL mod - D81] (Eterna round: R96, puzzle: Same State NG 2) | 168 | 181 | 174 | – | – | –
CGGAAACGAUGAGGAUAUGCAGAGGAUCACCCUGUAGAAGGCAAGAGAUGAGGAUAUGCAGAGGAUCACCCUGUAGAAGGCAAC [pwkr ssNG DX.4] (Eterna round: R96, puzzle: Same State NG 1) | 146 | 56.5 | 84.9 | – | – | –
CUGCUCGUGUGAGGAUAUGCCGCCGUUUCGGCUGCAGAAGGUGCUACGUUACAUGAGGAUCACCCAUGUCUCUGUUGUUUCGUA [salish99_SSNG1_r04_948] (Eterna round: R96, puzzle: Same State NG 1) | 40.1 | 28.8 | 35.9 | – | – | –
GUGGCGGGUUGAGGAUAUUGGUUGCCUCUGUUUUACAUGAGGAUCACCCAUGUGGGUUGCGGUUUCGAGAAGGGAGGUUGCUGG [salish99_SSNG2_r04_054] (Eterna round: R96, puzzle: Same State NG 2) | 323 | 420 | 399 | – | – | –
UUGGGUUUGCGAGGAUAUCGUAUGUGAUUUGAACGAGAAGGCGCUAUUUAAAUUAUUUUAACAUAACAUGAGGAUCACCCAUGU [JR_SSNG1_Sub021] (Eterna round: R96, puzzle: Same State NG 1) | – | 14.2 | – | – | – | –
AGACACAUGAGGAUCACCCAUGUUACGAGCUUAGCUCGGACACAGGAUAUCCGGUCCUAGAGACCGGAGAAGGGUGCCUGAUAA [Zara MOD3] (Eterna round: R96, puzzle: Same State NG 3) | 568 | 678 | 765 | – | – | –
UAGUGCUGUUGAGAGGAUAUGCGGCGACGGACAUGAGGAUCACCCAUGUUAGCGACAGCGUUGCGGCAGAAGGCUCUGCCCGCUA [Soteed Omei mod 52] (puzzle: Same State 2) | – | – | – | 13.1 | 27.4 | 33.3
CUGAGCGAUCUAGGAUAUCACGUCGAAUAGACGUGAGAAGGAGAUCAUAACAUGAGGAUCACCCAUGUAUUACAUGAAGCUCAG [SSNG1/6-A1] (Eterna round: R96, puzzle: Same State NG 1) | 13.2 | 10.4 | 25.4 | – | – | –
AAAAUGGUAUGUUACAUGAGGAUCACCCAUGUACUCUAAUCUGAGGAUAUGGGAAUGUAGAAGAACCAGAAGGCAGACAUCCAA [AK SSNG3-V2-22.1] (Eterna round: R96, puzzle: Same State NG 3) | 149 | 70.2 | 86 | – | – | –
GAGCCAGUCCGAGGAUAUUCAACAUGAGGAUCACCCAUGUAGGCUCAGAAAAGAAAAGAGCCUUGGGAGAAGGCGGACUGGCUC [Xeonanisa<<7] (Eterna round: R96, puzzle: Same State NG 2) | 9.61 | 9.01 | 14.1 | – | – | –
UAUGAAUUGCAAGGAUAUUGAUAACAUGAGGAUCACCCAUGUAAUUGAUCGAGUUAGAUCAGUUACAAGAAGGUGCUAUUGAUU [JR_SSNG2_Sub036] (Eterna round: R96, puzzle: Same State NG 2) | 534 | 24.5 | 90.7 | – | – | –
UAGAUUAGAAGUUAACAUGAGGAUCACCCAUGUAUUGGAACAGAGGAUAUGCAUGUUUGAUAGUAGCAGAAGGCUGAAGGUGGA [JR_SSNG3_Sub025] (Eterna round: R96, puzzle: Same State NG 3) | – | 68.4 | – | – | – | –
